Source: US20130129714A1 (UAB RESEARCH FOUNDATION, published 2013)
Each block holds one binder with its values, some of them ahead of it. Bridges are numbered along the chain shown (N, C = ends). Where no end group is shown, it is not given here.

Legend:
[1] = molecular target: T1, human Tamm-Horsfall protein (human, UniProt P07911 25-587); assay: competitive ELISA; light chains bound in the wells, Tamm-Horsfall protein in solution, cyclized peptide as inhibitor
Description: (§1) Peptides known to react with the Tamm-Horsfall protein in the yeast two-hybrid assay were synthesized, cyclized, and used as inhibitors in a competitive ELISA experiment. The peptides were cyclized by adding cysteine residues to the amino and carboxyl-terminal portions of the peptides and generating an intramolecular disulfide bridge (FIG. 4). Cyclization facilitates formation of the loop structure in solution. Both the linear and cyclized peptides inhibited the binding of the Tamm-Horsfall protein to the immunoglobulin light chains bound in the wells of the microtiter plate, but the efficiency of inhibition was increased by cyclization of the peptide inhibitor.

[2] = molecular target: T1, human Tamm-Horsfall protein; assay: competitive ELISA; light chains bound in the wells, Tamm-Horsfall protein in solution, linear peptide as inhibitor
Description: as §1

[3] = molecular target: T1, human Tamm-Horsfall protein; assay: competitive ELISA (FIG. 7)
Description: Mutation of the CDR3 sequence to disrupt the loop structure by substituting amino acid residues with phenyalanine confirmed that the secondary structure was an important determinant of binding (FIG. 6). The inhibitory capability of cyclized experimental ([…] (SEQ ID NO:32)) and control ([…] (SEQ ID NO:33)) peptides were then compared in a competitive ELISA assay. The experimental peptide served as a very efficient inhibitor of the binding interactions between the human Tamm-Horsfall protein and six different human immunoglobulin light chains (FIG. 7).

[4] = molecular target: T1, human Tamm-Horsfall protein; assay: competition studies for binding to Tamm-Horsfall protein

IC50 [1]: 24 nM
B1: peptide 2 (LSADSSGSYLYVF (SEQ ID NO:2)), cyclized (peptide)
peptide: CLSADSSGSYLYVFC
modifications: disulfide 1-15
notes: Built from the words 'cyclized by adding cysteine residues to the amino and carboxyl-terminal portions of the peptides'; also called cyclized peptide 2

IC50 [2]: 55 nM
Binder: QSYDNTLSGSYVF (also called uncyclized peptide 1) [peptide 1 (QSYDNTLSGSYVF (SEQ ID NO:1)), linear]

IC50 [2]: 90.9 nM
Binder: LSADSSGSYLYVF (also called uncyclized peptide 2) [peptide 2 (LSADSSGSYLYVF (SEQ ID NO:2)), linear]

binding result [3]: binds
B2: cyclized peptide (CLSADSSGSYLYVC) (SEQ ID NO:32) (peptide)
peptide: CLSADSSGSYLYVC
modifications: disulfide 1-14
notes: also called cyclized experimental peptide; experimental peptide

binding result [4]: binds
Binder: MQGTHWPPLT (also called SSH23 CDR3 peptide) [synthetic peptide (MQGTHWPPLT (SEQ ID NO:3)) identical to the CDR3 region of SSH23]
